This is an account of results in patent US20240327535A1 (EISAI R AND D MANAGEMENT, published 2024).

The target in test [1] is T1, extracellular domain of rhesus monkey BCMA (rhesus monkey, UniProt F7FFA0 1-53).
T1 construct: extracellular domain; also called RhBCMA
Description: Octet BLI; Fab 200 nM.

Test [2] concerns the target T2, extracellular domain of human BCMA (human, UniProt Q02223 1-54).
T2 construct: amine-linked to Octet AR2G tips; also called hsBCMA; BCMA (human)
T2 sequence: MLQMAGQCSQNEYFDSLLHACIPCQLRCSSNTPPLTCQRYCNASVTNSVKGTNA
The test is described as follows: Octet BLI; Fab 200 nM.

T1 sequence (F7FFA0 entry or part of it): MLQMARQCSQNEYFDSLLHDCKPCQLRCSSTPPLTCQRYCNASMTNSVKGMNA

B1: AB200-(2Vk31)_R2-VH-v25 (Fab, V domains shown)
VH: QVQLVQSGAEVKKPGSSVKVSCKASGGTFSNYWIHWVRQAPGQGLEWMGATYRSHSTTNYNQKFKSRVTITADKSTSTAYMELSSLRSEDTAVYYCARGAIYHGFDVIDNWGQGTLVTVSS
VL: DIQMTQSPSSLSASVGDRVTITCRASQSISSYLNWYQQKPGKAPKLLIYATSNLQIGVPSRFSGSGSGTDFTLTISSLQPEDFATYYCQQFRRLPWTFGQGTKLEIKR
As for B1, the figures for the Kd in test [1] and in test [2] were 57.3 nM and 32.8 nM, respectively.

B2: AB200-(2Vk31)_R2-VH-v29 (Fab, V domains shown)
VH: QVQLVQSGAEVKKPGSSVKVSCKASGGTFSNYWIHWVRQAPGQGLEWMGATYRSHSTTYYNEKFKSRVTITADKSTSTAYMELSSLRSEDTAVYYCARGAIYHGFDVIDNWGQGTLVTVSS
VL: DIQMTQSPSSLSASVGDRVTITCRASQSISSYLNWYQQKPGKAPKLLIYATSNLQIGVPSRFSGSGSGTDFTLTISSLQPEDFATYYCQQFRRLPWTFGQGTKLEIKR
As for B2, the Kd came out at 9.34 nM in test [1] and 6.02 nM in test [2].

B3: AB200-(2Vk31)_R2-VH-v57 (Fab, V domains shown)
VH: QVQLVQSGAEVKKPGSSVKVSCKASGGTFSNYWIHWVRQAPGQGLEWMGGTYRIHSTTYYNQKFKSRVTITADESTSTAYMELSSLRSEDTAVYYCARGAVYHGYDVIDNWGQGTLVTVSS
VL: DIQMTQSPSSLSASVGDRVTITCRASQSISSYLNWYQQKPGKAPKLLIYATSNLQIGVPSRFSGSGSGTDFTLTISSLQPEDFATYYCQQFRRLPWTFGQGTKLEIKR
Consider B3, for which the Kd in test [1] was determined as 20.8 nM; in test [2] it was 11.9 nM.

B4: AB200-(2Vk31)_R2-VH-v34 (Fab, V domains shown)
VH: QVQLVQSGAEVKKPGSSVKVSCKASGGTFSNYWIHWVRQAPGQGLEWMGATYRSQSDTYYAQKFKSRVTITADKSTSTAYMELSSLRSEDTAVYYCARGAIYHGYDVIENWGQGTLVTVSS
VL: DIQMTQSPSSLSASVGDRVTITCRASQSISSYLNWYQQKPGKAPKLLIYATSNLQIGVPSRFSGSGSGTDFTLTISSLQPEDFATYYCQQFRRLPWTFGQGTKLEIKR
On to B4, for which the figures for the Kd in test [1] and in test [2] were 18 nM and 5.13 nM, respectively.

B5: AB200-(2Vk31)_R2-VH-v50 (Fab, V domains shown)
VH: QVQLVQSGAEVKKPGSSVKVSCKASGGTYSNYWIHWVRQAPGQGLEWMGGTYRIHSDTNYNQKFKSRVTITADKSTSTAYMELSSLRSEDTAVYYCARGAIYHGYDVIENWGQGTLVTVSS
VL: DIQMTQSPSSLSASVGDRVTITCRASQSISSYLNWYQQKPGKAPKLLIYATSNLQIGVPSRFSGSGSGTDFTLTISSLQPEDFATYYCQQFRRLPWTFGQGTKLEIKR
For B5, the Kd was 196 nM in test [1] and 90 nM in test [2].

B6: AB200-(2Vk31)_R2-VH-v47 (Fab, V domains shown)
VH: QVQLVQSGAEVKKPGSSVKVSCKASGGTYSNYWIHWVRQAPGQGLEWMGATYRIHSTTYYNEKFKSRVTITADKSTSTAYMELSSLRSEDTAVYYCARGAIFHGYDVIDNWGQGTLVTVSS
VL: DIQMTQSPSSLSASVGDRVTITCRASQSISSYLNWYQQKPGKAPKLLIYATSNLQIGVPSRFSGSGSGTDFTLTISSLQPEDFATYYCQQFRRLPWTFGQGTKLEIKR
Take B6: the Kd in test [1] amounted to 15.9 nM; in test [2], 17.7 nM.

B7: AB200-(2Vk31)_R2-VH-v42 (Fab, V domains shown)
VH: QVQLVQSGAEVKKPGSSVKVSCKASGGTFTNYWIHWVRQAPGQGLEWMGGTYRIHSDTYYNQKYKSRVTITADKSTSTAYMELSSLRSEDTAVYYCARGAIFHGYDVIDNWGQGTLVTVSS
VL: DIQMTQSPSSLSASVGDRVTITCRASQSISSYLNWYQQKPGKAPKLLIYATSNLQIGVPSRFSGSGSGTDFTLTISSLQPEDFATYYCQQFRRLPWTFGQGTKLEIKR
On to B7, for which the Kd in test [1] is 23.5 nM; in test [2] it was 4.33 nM.

B8: AB200-(2Vk31)_R2-VH-v33 (Fab, V domains shown)
VH: QVQLVQSGAEVKKPGSSVKVSCKASGGTFSNYWIHWVRQAPGQGLEWMGATYRSHSDTNYNEKFKSRVTITADKSTSTAYMELSSLRSEDTAVYYCARGAIYHGYDVIENWGQGTLVTVSS
VL: DIQMTQSPSSLSASVGDRVTITCRASQSISSYLNWYQQKPGKAPKLLIYATSNLQIGVPSRFSGSGSGTDFTLTISSLQPEDFATYYCQQFRRLPWTFGQGTKLEIKR
Consider B8, for which the Kd was found to be 50.4 nM in test [1] and 46 nM in test [2].
